Measurements reported in patent EP3211087A1 (National University Corporation Nagoya University, dated 2017).

B1: Cavin-2 (other, human, UniProt O95810 2-425, looked up)
chain: GEDAAQAEKFQHPGSDMRQEKPSSPSPMPSSTPSPSLNLGNTEEAIRDNSQVNAVTVLTLLDKLVNMLDAVQENQHKMEQRQISLEGSVKGIQNDLTKLSKYQASTSNTVSKLLEKSRKVSAHTRAVKERMDRQCAQVKRLENNHAQLLRRNHFKVLIFQEENEIPASVFVKQPVSGAVEGKEELPDENKSLEETLHTVDLSSDDDLPHDEEALEDSAEEKVEESRAEKIKRSSLKKVDSLKKAFSRQNIEKKMNKLGTKIVSVERREKIKKSLTSNHQKISSGKSSPFKVSPLTFGRKKVREGESHAENETKSEDLPSSEQMPNDQEEESFAEGHSEASLASALVEGEIAEEAAEKATSRGSNSGMDSNIDLTIVEDEEEESVALEQAQKVRYEGSYALTSEEAERSDGDPVQPAVLQVHQTS
notes: whole, on cells; Detected with anti-Cavin-2 (Abcam) in IP-WB of cell extracts
B2: human Cavin-1 (other, UniProt Q6NZI2 1-390, looked up)
chain: MEDPTLYIVERPLPGYPDAEAPEPSSAGAQAAEEPSGAGSEELIKSDQVNGVLVLSLLDKIIGAVDQIQLTQAQLEERQAEMEGAVQSIQGELSKLGKAHATTSNTVSKLLEKVRKVSVNVKTVRGSLERQAGQIKKLEVNEAELLRRRNFKVMIYQDEVKLPAKLSISKSLKESEALPEKEGEELGEGERPEEDAAALELSSDEAVEVEEVIEESRAERIKRSGLRRVDDFKKAFSKEKMEKTKVRTRENLEKTRLKTKENLEKTRHTLEKRMNKLGTRLVPAERREKLKTSRDKLRKSFTPDHVVYARSKTAVYKVPPFTFHVKKIREGQVEVLKATEMVEVGADDDEGGAERGEAGDLRRGSSPDVHALLEITEESDAVLVDKSDSD
notes: whole, on cells; Endogenous protein in cell extracts, or full-length cDNA expressed from pCMV-puro in COS-7 cells for IP-WB; also called Cavin-1-WT; pCMVpuro-Cavin-1
B3: human Caveolin 1 (CAV1) (other, UniProt Q03135 2-178, looked up)
chain: SGGKYVDSEGHLYTVPIREQGNIYKPNNKAMADELSEKQVYDAHTKEIDLVNRDPKHLNDDVVKIDFEDVIAEPEGTHSFDGIWKASFTTFTVTKYWFYRLLSALFGIPMALIWGIYFAILSFLHIWAVVPCIKSFLIEIQCISRVYSIYVHTVCDPLFEAVGKIFSNVRINLQKEI
notes: whole, on cells; Endogenous protein in cell extracts, or full-length cDNA expressed from pCMV-puro in COS-7 cells for IP-WB; also called CAV1-WT; pCMVpuro-CAV1

Columns and labels:
[1] = biological target: T1, human ROR1 (receptor tyrosine kinase-like orphan receptor 1) (human, UniProt Q01973 30-937); test: IP-WB of octyl glucoside cell extracts, NCI-H1975 and SK-LU-1
T1 construct: whole, on cells; also called ROR1-WT; endogenous ROR1
T1 sequence (Q01973 30-937): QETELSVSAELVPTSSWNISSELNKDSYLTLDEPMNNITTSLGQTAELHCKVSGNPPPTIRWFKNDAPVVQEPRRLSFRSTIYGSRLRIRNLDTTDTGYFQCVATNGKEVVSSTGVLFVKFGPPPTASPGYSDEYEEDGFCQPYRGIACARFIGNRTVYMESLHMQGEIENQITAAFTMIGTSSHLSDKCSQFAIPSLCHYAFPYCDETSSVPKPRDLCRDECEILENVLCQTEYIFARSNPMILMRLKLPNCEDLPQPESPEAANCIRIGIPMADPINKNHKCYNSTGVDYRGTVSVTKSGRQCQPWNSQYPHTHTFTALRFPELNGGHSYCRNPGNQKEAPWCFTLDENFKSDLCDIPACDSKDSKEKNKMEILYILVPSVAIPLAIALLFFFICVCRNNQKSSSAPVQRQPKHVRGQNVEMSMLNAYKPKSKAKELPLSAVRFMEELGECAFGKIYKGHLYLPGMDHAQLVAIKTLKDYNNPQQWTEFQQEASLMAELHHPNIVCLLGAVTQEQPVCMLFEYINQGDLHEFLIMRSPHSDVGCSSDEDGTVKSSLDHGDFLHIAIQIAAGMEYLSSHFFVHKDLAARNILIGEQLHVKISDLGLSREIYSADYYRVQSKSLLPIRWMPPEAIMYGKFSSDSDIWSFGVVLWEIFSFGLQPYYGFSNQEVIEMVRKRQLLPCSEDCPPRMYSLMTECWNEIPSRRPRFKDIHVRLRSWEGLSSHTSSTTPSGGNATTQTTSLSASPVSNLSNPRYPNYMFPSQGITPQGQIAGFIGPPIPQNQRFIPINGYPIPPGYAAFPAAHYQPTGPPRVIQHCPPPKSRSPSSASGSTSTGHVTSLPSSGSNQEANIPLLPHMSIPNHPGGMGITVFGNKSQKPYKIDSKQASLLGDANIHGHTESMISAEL

human Cavin-1 = biological target: B2; test: legend of FIG. 4(6): IP-WB
[2] = biological target: T1, human ROR1 (receptor tyrosine …); test: legend of FIGS. 4(3) and (4): IP-WB, NCI-H1975 and SK-LU-1

Binder | binding result [1] | binding result (human Cavin-1) | binding result [2]
B1 | no binding |  | 
B2 | binds |  | 
B3 |  | binds | binds
